T1: soluble human CD73 (Homo sapiens, UniProt P21589)
T1 construct: The ectodomain of CD73 (aa 27-549) was expressed as a recombinant protein with a C-terminal His6× tag; His6 (C); made in house; host or cells: transiently transfected HEK cells
T1 sequence (P21589 27-549): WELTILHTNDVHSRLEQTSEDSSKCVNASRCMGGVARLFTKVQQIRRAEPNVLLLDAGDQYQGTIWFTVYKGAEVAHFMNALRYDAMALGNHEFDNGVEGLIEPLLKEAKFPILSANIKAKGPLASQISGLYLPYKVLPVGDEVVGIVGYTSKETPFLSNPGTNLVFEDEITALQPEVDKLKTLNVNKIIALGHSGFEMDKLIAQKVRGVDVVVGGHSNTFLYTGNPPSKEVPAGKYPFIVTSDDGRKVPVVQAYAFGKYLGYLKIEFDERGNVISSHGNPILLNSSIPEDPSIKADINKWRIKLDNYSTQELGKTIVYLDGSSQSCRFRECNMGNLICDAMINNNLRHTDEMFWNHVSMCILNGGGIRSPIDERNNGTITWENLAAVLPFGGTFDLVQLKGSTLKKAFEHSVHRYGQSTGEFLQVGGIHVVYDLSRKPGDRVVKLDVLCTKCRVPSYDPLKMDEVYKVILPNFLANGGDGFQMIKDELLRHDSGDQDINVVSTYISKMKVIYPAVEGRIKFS

T2: human CD73 on cells (CD73-transfected HEK cells; native on PBMCs; OCI-AML3 cells) (human, UniProt P21589 27-549)
T2 construct: also called NT5E; gene ID 4907
T2 sequence: T1 sequence (P21589 27-549)

T3: recombinant human CD73 ectodomain (aa 27-549) with C-terminal His6x tag (human, UniProt P21589 27-549)
T3 construct: also called soluble recombinant human CD73; soluble human CD73
T3 sequence: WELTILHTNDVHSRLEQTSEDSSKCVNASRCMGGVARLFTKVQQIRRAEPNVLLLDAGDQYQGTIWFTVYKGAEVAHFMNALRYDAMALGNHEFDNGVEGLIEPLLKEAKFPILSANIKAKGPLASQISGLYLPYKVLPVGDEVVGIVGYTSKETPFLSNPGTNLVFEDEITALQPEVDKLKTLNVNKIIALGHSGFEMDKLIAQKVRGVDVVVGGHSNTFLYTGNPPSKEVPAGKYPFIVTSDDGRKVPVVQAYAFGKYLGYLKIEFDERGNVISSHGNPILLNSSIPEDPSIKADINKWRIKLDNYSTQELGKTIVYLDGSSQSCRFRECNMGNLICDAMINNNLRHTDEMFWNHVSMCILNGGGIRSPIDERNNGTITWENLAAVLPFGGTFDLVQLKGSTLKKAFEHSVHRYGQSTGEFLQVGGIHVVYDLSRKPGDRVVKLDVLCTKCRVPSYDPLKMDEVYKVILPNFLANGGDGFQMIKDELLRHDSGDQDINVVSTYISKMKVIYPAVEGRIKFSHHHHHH

B1: SB115: CD73-specific alpaca VHH clone, family 1, SEQ ID NO:63; tested as rabbit IgG hcAb (antibody)
heavy: DVQLQASGGGLVQPGGSLRLSCVVSGFTLDYYTIGWFRQAPGKEREGVSCINSSGGVTNYADSVKGRFTISRDNAKNTVYLQMNSLKSEDTAVYYCAAQKYYYCSRKGEVYDSWGQGTQVTVSS
modifications: left off: a dimerising Fc or GST
notes: tested as rabbit IgG hcAb
B2: SB108: CD73-specific alpaca VHH clone, family 1, SEQ ID NO:67; tested as rabbit IgG hcAb (antibody)
heavy: QVKLQESGGGLVHSGGSLRLSCAVSGFALDYYTIGWFRQAPGKEREGVSCISSSGSSTNYADSMKGRLTISRDNAKNTVYLQMNSLKPEDTAVYYCAAQRYYYCSDKVAVYDYWGQGTQVTVSS
modifications: left off: a dimerising Fc or GST
notes: tested as rabbit IgG hcAb
B3: SB141 rabbit IgG hcAb (Fc fusion)
heavy: QVQLVESGGGLVQPGGSLRLSCAASGFTFINYHMSWLRQAPGKGLEWVSEIHSRGDITSYTNSVKGRFTISRDNAKNTLYLQMNSLKFDDTAVYYCARSRDLFNEGEYDYWGRGTQVTVSS
notes: not shown: hinge and Fc-domains of rabbit IgG
B4: SB98: CD73-specific alpaca VHH clone, family 1, SEQ ID NO:62; tested as rabbit IgG hcAb (antibody)
heavy: QVKLQESGGGLVQPGGSLRLSCAASGFTLDYYTIGWFRQAPGKEREGVSCISSSGGITNYADSVKGRLTISRDNAKNTVYLQMNSLKPEDTAVYYCAAQKYYYCSGKAEVYDYWGQGTQVTVSS
modifications: left off: a dimerising Fc or GST
notes: tested as rabbit IgG hcAb
B5: SB107: CD73-specific alpaca VHH clone, family 1, SEQ ID NO:66; tested as rabbit IgG hcAb (antibody)
heavy: QVQLQESGGGLVQPGGSLRLSCAASGFTLDYLTIGWFRQAPGKEREGVSCINSNGGSTIYADSVKGRLTISRDNAKNTVYLQINSLKPDDTAVYFCAAQKYYYCSGRVEVYDYWGQGIQVTVSS
modifications: left off: a dimerising Fc or GST
notes: tested as rabbit IgG hcAb
B6: SB143 rabbit IgG hcAb (Fc fusion)
heavy: QVQLVESGGGLVQAGGSLRLSCAASGRTFSRSTMGWFRQAPGKERVFVAAIRWIGGTTTYGDSVKGRFTISVDNAKNTLYLQMNSLKPEDTAVYYCAATAGGPYYLGGRDILYDYWGQGTQVTVSS
notes: as for B3

Key:
soluble human CD73 [1] = target: T1, soluble human CD73; experiment: Off-rates of soluble CD73 from immobilized Nb-rbIgG hcAb on Octet BLI; format: binding; settings: soluble human CD73 ectodomain 200 ng/μl as analyte; Nb-rbIgG hcAb immobilized on protein A biosensor
Description: (§1) The binding off-rate constants of bivalent hcAbs to human and mouse CD73 protein were determined by […] kinetic analysis on Octet RED96 (ForteBio). Immobilization of rabbit IgG hcAbs on the protein A-biosensor surface was done in HEK-6E cell supernatant, and regeneration of analytes was done with 100 mM Glycin pH=2.5. Recombinant mouse or human CD73 ectodomain was used as analytes and tested at a saturating dose of 200 ng/μl. Sensorgrams were fitted using least square regression in association than dissociation Model in Prism8 (Graphpad).

soluble human CD73 [2] = target: T1, soluble human CD73; experiment: AMP hydrolysis by soluble CD73, DPEA-Napht-Azide fluorescence assay; format: biochemical; settings: 50 ng CD73, 30 min pre-incubation with 10 μl hcAb supernatant, 1 mM AMP
Description: Recombinant human CD73 (50 ng) was pre-incubated for 30 min with hcAbs at RT in 96 well plates before addition of AMP and DPEA-Napht-Azide. Fluorescence signals were detected every 50 seconds for 30 repeats. ARFU values (>10^3/min) were calculated for a 10 min interval during the linear phase (from 5 min to 15 min) using Prism software (Graphpad). A non-specific rabbit IgG hcAb was used as control.
• 4.1 CD73 catalyzes the hydrolysis of AMP to adenosine. This reaction can be monitored by the shift in fluorescence intensity of DPEA-Napht-Azide. This property was used to determine whether hcAbs could interfere with the enzymatic activity of CD73. Soluble recombinant human CD73 (50 ng) was pre-incubated for 30 min with Nbs or hcAbs (10 μl HEK-6E cell supernatant containing 10-100 μg/ml hcAb) at RT in 96 well plates before addition of AMP (Sigma) to a final concentration of 1 mM and of DPEA-Napht-Azide to a final concentration of 50 μM. • 4.2 Fluorescence signals were recorded in white Nunc MicroWell plates (Nunc, 136101) on a Victor III plate reader (Perkin Elmer) (Exicitation filter: F485, Emission Filter: F535; CW-Lamp energy: 40000, counting time: 0.1 s). Data analyses were performed using Prism (Graphpad).
Soluble recombinant human CD73 (50 ng) was pre-incubated for 30 min with CD73-specific hcAbs or an irrelevant control hcAb (10 μl HEK-6E cell supernatant) at RT in 96 well plates before addition of AMP (Sigma) to a final concentration of 1 mM and of DPEA-Napht-Azide to a final concentration of 50 μM. Fluorescence signals were detected every 50 seconds for 30 repeats. Data analyses were performed using Prism (Graphpad).

[3] = target: T2, human CD73 on cells (CD73-transfected …); experiment: flow cytometry, human CD73-expressing cells; competitor: human IgG hcAb SB143
Description: (§2) The binding specificities of the purified hcAbs were determined by flow cytometry using HEK cells transiently co-transfected with expression vectors for GFP and either mouse CD73, human CD73 or a control protein (CD39). 1×10⁶ cells were incubated with 10 μl of the Nb-rbIgG hcAb containing HEK-6E cell supernatants for 30 min at 4° C. […] The cells were resuspended in PBS and analyzed by flow cytometry on FACS Canto or FACS Celesta (BD Biosciences, Heidelberg). Data evaluation was conducted using the software FlowJo (Treestar, Stanford, US).
(§3) To evaluate the epitopes on the CD73 protein recognized by different VHHs, representative rabbit IgG hcAbs were binned against a set of human IgG hcAbs, and bound hcAbs were detected with a PE-conjugated anti-rabbit IgG secondary antibody. Cells were pre-incubated with excess human IgG hcAbs for […] at RT to block specific epitopes before addition of rabbit IgG hcAbs as detectors and further incubation for 15 min at RT. Cells were washed, and bound antibodies were detected with PE-conjugated anti-rabbit IgG polyclonal antibody. Cells were washed and analyzed by flow cytometry on a BD-FACS Canto. Data were analyzed using the FlowJo software (Treestar). Lack of blockade by a non-binding control human IgG hcAb served as negative control (unblocked), and blockade of binding with the same VHH carrying human IgG hcAb as the rabbit IgG hcAb used for detection served as positive controls for blocking. Values for blocking were determined by comparing the mean fluorescence intensities (MFIs) of PE staining of transfected cells for unblocked vs blocked rabbit hcAbs using the formula: inhibition (%)=100−(MFI (blocked)/MFI MFI(unblocked)*100). The values were rounded to whole percentages.

[4] = target: T2, human CD73 on cells (CD73-transfected …); experiment: flow cytometry, human CD73-expressing cells; competitor: human IgG hcAb SB139
Description: as §2, §3

[5] = target: T2, human CD73 on cells (CD73-transfected …); experiment: flow cytometry, human CD73-expressing cells; competitor: IPH5301
Description: as §2, §3

[6] = target: T3, recombinant human CD73 ectodomain (aa …); experiment: BLI (Octet), immobilized Nb-rbIgG hcAb, soluble human CD73 as analyte
Description: as §1

[7] = target: T2, human CD73 on cells (CD73-transfected …); experiment: flow cytometry, human CD73-expressing cells; competitor: human IgG hcAb SB116
Description: as §2, §3

[8] = target: T2, human CD73 on cells (CD73-transfected …); experiment: flow cytometry, human CD73-expressing cells; competitor: human IgG hcAb SB141
Description: as §2, §3

[9] = target: T2, human CD73 on cells (CD73-transfected …); experiment: flow cytometry, human CD73-expressing cells; competitor: human IgG hcAb SB121
Description: as §2, §3

[10] = target: T2, human CD73 on cells (CD73-transfected …); experiment: flow cytometry, human CD73-expressing cells; competitor: MEDI9447
Description: as §2, §3

[11] = target: T2, human CD73 on cells (CD73-transfected …); experiment: flow cytometry, human CD73-expressing cells; competitor: human IgG hcAb SB96
Description: as §2, §3

| Molecule | Kdis (soluble human CD73 [1]) | effect on hydrolysis of AMP by soluble CD73 (soluble human CD73 [2]) | percent inhibition of binding [3] | percent inhibition of binding [4] | percent inhibition of binding [5] | koff [6] | percent inhibition of binding [7] | percent inhibition of binding [8] | percent inhibition of binding [9] | percent inhibition of binding [10] | percent inhibition of binding [11] |
| --- | --- | --- | --- | --- | --- | --- | --- | --- | --- | --- | --- |
| B1 | 0.00035 s⁻¹ | inhibited CD73 catalyzed hydrolysis of AMP |  |  |  |  |  |  |  |  |  |
| B2 | 9.7e-05 s⁻¹ | inhibited CD73 catalyzed hydrolysis of AMP |  |  |  |  |  |  |  |  |  |
| B3 |  |  | 66% | -7% | 40% | 0.00045 s⁻¹ | 16% | 84% | -1% | 26% | 13% |
| B4 | 0.0018 s⁻¹ |  |  |  |  |  |  |  |  |  |  |
| B5 |  | inhibited CD73 catalyzed hydrolysis of AMP |  |  |  |  |  |  |  |  |  |
| B6 |  |  | 91% | 16% | 99% | 0.0013 s⁻¹ | 97% | 35% | 13% | 98% | 100% |

— patent publication US20240417484A1, “ANTIGEN-BINDING POLYPEPTIDES AGAINST CD73” (UNIVERSITÄTSKLINIKUM HAMBURG-EPPENDORF, priority 2021, published 2024)
